Data as given in article PMC9764456 (Cell reports, 2022).

Target: the molecule itself
Assay: negative stain electron microscopy

B1: peroxiredoxin PRDX2 (enzyme, human (endogenous in RBCs), UniProt P32119 1-198, looked up)
chain: MASGNARIGKPAPDFKATAVVDGAFKEVKLSDYKGKYVVLFFYPLDFTFVCPTEIIAFSNRAEDFRKLGCEVLGVSVDSQFTHLAWINTPRKEGGLGPLNIPLLADVTRRLSEDYGVLKTDEGIAYRGLFIIDGKGVLRQITVNDLPVGRSVDEALRLVQAFQYTDEHGEVCPAGWKPGSDTIKPNVDDSKEYFSKHN
**Q.** How did the “stoichiometry N” value turn out when B1 was run?
**A.** 10
